In patent publication US20240199755A1, “ANTAGONISTS AND AGONISTS OF THE TRANSFERRIN RECEPTOR-2 FOR USE IN THE TREATMENT OF DISEASES OF THE BONE” (Kymab Limited, priority 2018, published 2024):

Biological target: T1, Tfr2-ECD (Mus musculus, UniProt Q9JKX3)
T1 construct: full-length extracellular domain (ECD, aa 103-798) of murine Tfr2; His (N); MBP (N); c3 (protease site between MBP and ECD) (N); made in house; host or cells: Sf9 insect cells (baculovirus, pOCC211-Tfr2-ECD)
T1 sequence (Q9JKX3 103-798): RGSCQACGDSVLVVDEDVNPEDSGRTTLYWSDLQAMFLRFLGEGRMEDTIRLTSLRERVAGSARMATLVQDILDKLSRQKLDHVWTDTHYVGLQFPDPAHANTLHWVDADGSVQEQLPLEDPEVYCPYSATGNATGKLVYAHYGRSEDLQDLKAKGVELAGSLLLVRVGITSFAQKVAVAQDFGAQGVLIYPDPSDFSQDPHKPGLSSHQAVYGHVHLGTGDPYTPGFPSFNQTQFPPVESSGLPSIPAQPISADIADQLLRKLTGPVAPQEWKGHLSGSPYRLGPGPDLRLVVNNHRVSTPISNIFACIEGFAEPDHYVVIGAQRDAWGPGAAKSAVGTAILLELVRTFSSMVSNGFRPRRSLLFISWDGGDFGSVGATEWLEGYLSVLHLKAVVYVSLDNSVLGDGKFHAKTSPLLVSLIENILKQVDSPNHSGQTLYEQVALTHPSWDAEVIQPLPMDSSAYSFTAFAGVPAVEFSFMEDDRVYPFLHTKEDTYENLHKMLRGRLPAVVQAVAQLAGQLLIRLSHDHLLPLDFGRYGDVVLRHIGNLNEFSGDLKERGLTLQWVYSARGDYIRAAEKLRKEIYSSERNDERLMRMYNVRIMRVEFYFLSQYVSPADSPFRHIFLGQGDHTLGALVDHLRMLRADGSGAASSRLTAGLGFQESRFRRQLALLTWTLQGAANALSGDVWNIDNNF
Assay: SPR binding of holo-Tf and BMP receptors to Tfr2-ECD immobilized on the sensor chip
Set-up: species or system murine
Details: 200 nM BMP receptors; binding level normalized to molecular weight
Description: For this purpose, Tfr2-ECD is immobilized on a Series S Sensor Chip C1 (GE Healthcare), by means of coupling the amino groups at 25° C. The carboxyl groups on the chip surface are activated for 7 minutes using a mixture of 196 mM 1-ethyl-3-(3-dimethylaminopropyl) carbodiimide-hydrochloride and 50 mM n-hydroxysuccinimide at a flow rate of 10 μl/min. Subsequently, 5 μg/ml Tfr2-ECD, diluted with sodium acetate buffer (pH 4.5), is injected at a flow rate of 5 μl/min up to a relative occupancy of 200 RU. Non-reacted groups are inactivated by injecting 1 M thanolamine-HCl (pH 8.5) for 7 minutes at a flow rate of 10 μl/min. In order to prepare a reference surface, the same procedure is carried out but without Tfr2-ECD being injected.
The binding assays are carried out at 37° C. at a flow rate of 30 μl/min. Each analyte is diluted by a running buffer (HBS-P, pH 7.4 together with 50 nM FeCl3). […] The values of the binding level are read out, relative to the baseline, 10 s before the end of the injection and are corrected with respect to the molar mass. […] The binding parameters are determined using the Biacore™ T100 evaluation software 2.03. […]
For binding analysis, an injection of analyte for 240 s or 300 s over a Tfr2-ECD surface was followed by 1000 s dissociation. The values of the binding levels were recorded from referenced signals 10 s before the end of injection relative to baseline response. […]

B1: BMPR-II: type II BMP receptor (R&D Systems) (protein, UniProt Q13873 27-1038, looked up)
Bone morphogenetic protein …: SQNQERLCAFKDPYQQDLGIGESRISHENGTILCSKGSTCYGLWEKSKGDINLVKQGCWSHIGDPQECHYEECVVTTTPPSIQNGTYRFCCCSTDLCNVNFTENFPPPDTTPLSPPHSFNRDETIIIALASVSVLAVLIVALCFGYRMLTGDRKQGLHSMNMMEAAASEPSLDLDNLKLLELIGRGRYGAVYKGSLDERPVAVKVFSFANRQNFINEKNIYRVPLMEHDNIARFIVGDERVTADGRMEYLLVMEYYPNGSLCKYLSLHTSDWVSSCRLAHSVTRGLAYLHTELPRGDHYKPAISHRDLNSRNVLVKNDGTCVISDFGLSMRLTGNRLVRPGEEDNAAISEVGTIRYMAPEVLEGAVNLRDCESALKQVDMYALGLIYWEIFMRCTDLFPGESVPEYQMAFQTEVGNHPTFEDMQVLVSREKQRPKFPEAWKENSLAVRSLKETIEDCWDQDAEARLTAQCAEERMAELMMIWERNKSVSPTVNPMSTAMQNERNLSHNRRVPKIGPYPDYSSSSYIEDSIHHTDSIVKNISSEHSMSSTPLTIGEKNRNSINYERQQAQARIPSPETSVTSLSTNTTTTNTTGLTPSTGMTTISEMPYPDETNLHTTNVAQSIGPTPVCLQLTEEDLETNKLDPKEVDKNLKESSDENLMEHSLKQFSGPDPLSSTSSSLLYPLIKLAVEATGQQDFTQTANGQACLIPDVLPTQIYPLPKQQNLPKRPTSLPLNTKNSTKEPRLKFGSKHKSNLKQVETGVAKMNTINAAEPHVVTVTMNGVAGRNHSVNSHAATTQYANGTVLSGQTTNIVTHRAQEMLQNQFIGEDTRLNINSSPDEHEPLLRREQQAGHDEGVLDRLVDRRERPLEGGRTNSNNNNSNPCSEQDVLAQGVPSTAADPGPSKPRRAQRPNSLDLSATNVLDGSSIQIGESTQDGKSGSGEKIKKRVKTPYSLKRWRPSTWVISTESLDCEVNNNGSNRAVHSKSSTAVYLAEGGTATTMVSKDIGMNCL
**Q.** Which “Binding response of BMPRs to Tfr2-ECD compared with BMPs” value does the source give for B1 here?
**A.** weaker than BMPs
